In publication PMC11661314 (bioRxiv, 2024):

What was measured:
Assay in all cases: ELISA
[1] = biological target: T1, E. coli (UTI89) FimH lectin domain truncate (Escherichia coli UTI89, strain)
T1 chain: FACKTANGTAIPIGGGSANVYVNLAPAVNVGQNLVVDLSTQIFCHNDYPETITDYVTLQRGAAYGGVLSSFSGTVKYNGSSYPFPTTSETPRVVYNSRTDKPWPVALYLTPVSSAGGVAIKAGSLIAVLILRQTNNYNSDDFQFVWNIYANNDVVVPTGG

[2] = biological target: T2, K. pneumoniae (TOP52) FimH lectin domain truncate (Klebsiella pneumoniae TOP52, strain)
T2 chain: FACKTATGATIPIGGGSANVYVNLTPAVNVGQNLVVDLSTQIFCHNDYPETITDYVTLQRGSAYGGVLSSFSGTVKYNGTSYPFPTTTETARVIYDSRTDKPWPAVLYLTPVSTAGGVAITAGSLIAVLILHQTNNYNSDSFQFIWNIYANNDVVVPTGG

[3] = biological target: T3, E. coli FmlH lectin domain (Escherichia coli UTI89 (strain from PDB …))
T3 chain: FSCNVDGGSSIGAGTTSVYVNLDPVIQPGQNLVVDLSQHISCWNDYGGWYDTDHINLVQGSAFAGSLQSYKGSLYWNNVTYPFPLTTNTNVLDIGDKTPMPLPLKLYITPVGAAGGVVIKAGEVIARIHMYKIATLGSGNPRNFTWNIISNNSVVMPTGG

B1: Ec3 B7 mAb (chimeric murine/human IgG) (antibody, V domains shown)
VH: EVQLQQPGAELVRPGASVKMSCKASGYTFTIYNLHWVKQTPRQGLEWIGTIYPGDGDTSYNQKFKGKATLTVDKSSSTAYMQLSNLTSEDSAVYFCAREGDYGPWFAYWGQGTLVTVSA
VL: QIVLTQSPAIMSASPGEKVTMTCRASSSVSSSYLHWYQQKSGASPKLWIYSSSNLASGVPARFSGSGSGTSYSLTINSVEAEDAATYYCQHYGSYPLTFGGGTKLEIK
binding result [1]: binds

B2: Kp2 2C07 mAb (chimeric murine/human IgG) (antibody, V domains shown)
VH: EVKLVESGEGLVKPGGSLKLSCAASGFTFSSYAMSWVRQTPEKRLDWVAYISSGGDHIYYADTVKGRFTISRDNARNTLYLQMSSLKSEDTAMYYCTRDTGYYVSRYFDVWGTGTTVTVSS
VL: DIVMTQSQKFMSTSVGDRVSVTCKASQNVVTNVAWYQQKSGQSPKVVIYSASFRSSGVPDRFTGSGSGTDFTLTISNVQSEDLAEYFCHQYNSHPLTFGGGTKLEIK
binding result [1]: binds | binding result [2]: binds | binding result [3]: no binding

B3: Kp1 2H04 mAb (chimeric murine/human IgG) (antibody, V domains shown)
VH: EVQLQQSGAELVKPGASVKLSCKASGYTFTSYWMHWVKQRPGQGLEWIGLIHPNSSSTYYNEKFKTRATLTVDKSSSTAYMQLSSLTSEDSAVYYCARLGYGNSYWYFDVWGTGTTVTVSS
VL: QIVLTQSPALMAASPGEKVTITCSVSSSISSSNLHWYQQKSETSPKPWIYGTSNLASGVPIRFSGSGSGTSYSLTISSLEAEDAATYYCQQWRSYPWTFGGGTKLEIK
binding result [1]: binds | binding result [2]: binds

B4: Ec1 F7 mAb (chimeric murine/human IgG) (antibody, V domains shown)
VH: EVQLQQPGPVLVKPGPSVKISCKASGFTFTDYFIHWVKQSHGKSLEWIGLVSPYNGGTYYNQQFKGKATLTVDTSSSTAYMDLNSLTSEDSAVYYCTRLLRGYWYFDVWGTGTTVTVSS
VL: QIVLTQSPALMAASPGEKVTITCSVSSSIGSSNLHWYQQKSETSPKPWIYGTSNLASGVPVRFSGSGSGTSYSLTISSMEAEDAATYYCQQWSTYPYTFGGGTKLEIK
binding result [1]: binds | binding result [2]: binds
